Assay results as given in patent publication US20080214461.

Key:
[1] = target: activated factor VIII (FVIIIa): Recombinate Antihemophilic Factor activated with thrombin (UniProt P00451)
factor X (FX) = factor X (FX) (UniProt P00742)
UniProt P00742, sequence (P00742 41-488): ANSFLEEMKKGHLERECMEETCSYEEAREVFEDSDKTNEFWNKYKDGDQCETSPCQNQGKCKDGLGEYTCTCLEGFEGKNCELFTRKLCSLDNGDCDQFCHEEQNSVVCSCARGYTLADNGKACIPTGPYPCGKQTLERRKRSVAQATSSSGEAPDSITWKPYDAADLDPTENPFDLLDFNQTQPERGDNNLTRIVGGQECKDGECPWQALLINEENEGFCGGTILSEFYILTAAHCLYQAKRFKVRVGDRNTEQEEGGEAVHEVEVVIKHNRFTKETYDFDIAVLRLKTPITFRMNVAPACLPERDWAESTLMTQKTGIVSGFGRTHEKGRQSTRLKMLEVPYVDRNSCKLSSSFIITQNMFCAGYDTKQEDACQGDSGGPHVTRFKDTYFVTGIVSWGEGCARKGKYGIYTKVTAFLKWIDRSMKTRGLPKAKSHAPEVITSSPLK

FIX wild type (recombinant, full length, HEK 293), activated form, sequence (chain): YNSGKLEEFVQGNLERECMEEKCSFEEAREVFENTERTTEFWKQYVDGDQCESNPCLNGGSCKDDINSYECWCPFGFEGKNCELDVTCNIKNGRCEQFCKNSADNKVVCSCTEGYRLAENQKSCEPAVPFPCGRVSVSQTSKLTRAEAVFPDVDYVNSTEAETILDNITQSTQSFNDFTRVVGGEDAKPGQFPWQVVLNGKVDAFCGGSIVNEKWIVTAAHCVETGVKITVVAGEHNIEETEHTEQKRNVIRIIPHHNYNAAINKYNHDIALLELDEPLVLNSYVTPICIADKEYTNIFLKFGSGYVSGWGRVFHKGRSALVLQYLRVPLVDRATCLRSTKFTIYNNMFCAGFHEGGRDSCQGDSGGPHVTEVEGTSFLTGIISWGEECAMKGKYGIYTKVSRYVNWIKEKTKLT
plasma derived FIX (pdFIX), activated form pdFIXa, sequence (chain): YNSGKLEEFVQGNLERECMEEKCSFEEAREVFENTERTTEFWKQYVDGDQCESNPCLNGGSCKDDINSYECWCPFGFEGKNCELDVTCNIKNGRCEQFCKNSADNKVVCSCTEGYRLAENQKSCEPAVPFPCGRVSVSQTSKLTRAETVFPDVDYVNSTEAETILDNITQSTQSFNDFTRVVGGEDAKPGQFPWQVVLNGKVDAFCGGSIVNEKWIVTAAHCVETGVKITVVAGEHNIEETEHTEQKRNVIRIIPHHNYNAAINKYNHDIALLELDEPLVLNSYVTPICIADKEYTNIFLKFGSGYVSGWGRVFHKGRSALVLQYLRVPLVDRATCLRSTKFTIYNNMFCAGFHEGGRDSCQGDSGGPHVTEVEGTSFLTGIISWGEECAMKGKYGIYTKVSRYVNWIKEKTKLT
UniProt P00451, sequence (P00451 other isoform, or with tags, fused parts or gaps): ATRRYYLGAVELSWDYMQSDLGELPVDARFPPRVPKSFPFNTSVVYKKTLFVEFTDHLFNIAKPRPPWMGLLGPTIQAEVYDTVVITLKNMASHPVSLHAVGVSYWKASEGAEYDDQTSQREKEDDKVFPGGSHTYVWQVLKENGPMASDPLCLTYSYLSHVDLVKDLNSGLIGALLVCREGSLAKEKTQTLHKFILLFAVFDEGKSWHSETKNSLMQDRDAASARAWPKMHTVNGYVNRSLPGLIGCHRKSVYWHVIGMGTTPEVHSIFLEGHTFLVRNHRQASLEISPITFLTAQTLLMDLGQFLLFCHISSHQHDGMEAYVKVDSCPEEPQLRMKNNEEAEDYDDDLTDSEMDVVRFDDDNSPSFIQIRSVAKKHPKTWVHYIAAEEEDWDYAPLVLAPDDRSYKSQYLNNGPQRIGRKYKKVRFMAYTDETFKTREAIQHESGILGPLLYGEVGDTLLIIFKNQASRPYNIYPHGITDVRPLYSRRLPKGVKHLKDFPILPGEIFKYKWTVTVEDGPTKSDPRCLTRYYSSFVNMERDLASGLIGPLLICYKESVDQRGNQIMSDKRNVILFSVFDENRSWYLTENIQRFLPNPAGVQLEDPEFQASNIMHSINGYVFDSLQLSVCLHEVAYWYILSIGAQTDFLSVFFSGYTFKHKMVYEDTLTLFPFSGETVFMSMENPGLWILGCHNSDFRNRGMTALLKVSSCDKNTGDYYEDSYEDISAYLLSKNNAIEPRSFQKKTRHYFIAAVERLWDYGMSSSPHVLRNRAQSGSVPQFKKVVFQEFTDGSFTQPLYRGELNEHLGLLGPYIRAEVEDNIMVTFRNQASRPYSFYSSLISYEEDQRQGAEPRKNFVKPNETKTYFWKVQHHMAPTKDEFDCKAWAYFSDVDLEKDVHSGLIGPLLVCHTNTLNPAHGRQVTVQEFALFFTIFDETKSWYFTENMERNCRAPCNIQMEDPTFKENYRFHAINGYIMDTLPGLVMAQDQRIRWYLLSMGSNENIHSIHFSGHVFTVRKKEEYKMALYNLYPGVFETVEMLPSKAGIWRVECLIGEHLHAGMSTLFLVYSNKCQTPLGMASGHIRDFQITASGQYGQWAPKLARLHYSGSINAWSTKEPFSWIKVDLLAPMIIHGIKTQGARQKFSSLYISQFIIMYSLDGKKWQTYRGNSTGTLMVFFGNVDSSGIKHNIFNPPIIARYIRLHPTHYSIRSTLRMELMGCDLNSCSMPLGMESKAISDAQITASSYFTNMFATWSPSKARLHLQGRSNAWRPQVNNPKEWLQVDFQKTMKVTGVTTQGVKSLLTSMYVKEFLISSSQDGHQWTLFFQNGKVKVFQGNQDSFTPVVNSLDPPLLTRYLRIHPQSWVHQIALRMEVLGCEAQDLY

Substance | ratio kcat/KM +/- FVIIIa (FX activation) [1] | KM (nM), FX activation with FVIIIa (factor X (FX)) [nM] | KM (nM), FX activation without FVIIIa (factor X (FX)) [nM] | kcat (10^-3 min^-1), FX activation without FVIIIa (factor X (FX)) [s⁻¹] | kcat (min^-1), FX activation with FVIIIa (factor X (FX)) [min⁻¹] | kcat/KM (10^-6 nM^-1 min^-1), FX activation without FVIIIa (factor X (FX)) [M⁻¹ s⁻¹] | kcat/KM (nM^-1 min^-1), FX activation with FVIIIa (factor X (FX)) [M⁻¹ s⁻¹] | rate of FX activation against pdFIXa (factor X (FX))
FIX wild type (recombinant, full length, HEK 293), activated form | 36,695 | 11 | 68 | 0.000283 | 102 | 4200 | 1.5e+08 | FIX-WT and FIX-Y94F/K98T/Y177F activated FX at the same rate as pdFIXa
plasma derived FIX (pdFIX), activated form pdFIXa | 52,430 | 13 | 65 | 0.000217 | 131 | 3250 | 1.67e+08 | 
